From publication PMC3382582, “The Estrogen-Related Receptor Alpha Upregulates Secretin Expressions in Response to Hypertonicity and Angiotensin II Stimulation”

Biological target: T1, ERRα (in vitro translated) (Mus musculus, UniProt O08580 1-422)
T1 sequence: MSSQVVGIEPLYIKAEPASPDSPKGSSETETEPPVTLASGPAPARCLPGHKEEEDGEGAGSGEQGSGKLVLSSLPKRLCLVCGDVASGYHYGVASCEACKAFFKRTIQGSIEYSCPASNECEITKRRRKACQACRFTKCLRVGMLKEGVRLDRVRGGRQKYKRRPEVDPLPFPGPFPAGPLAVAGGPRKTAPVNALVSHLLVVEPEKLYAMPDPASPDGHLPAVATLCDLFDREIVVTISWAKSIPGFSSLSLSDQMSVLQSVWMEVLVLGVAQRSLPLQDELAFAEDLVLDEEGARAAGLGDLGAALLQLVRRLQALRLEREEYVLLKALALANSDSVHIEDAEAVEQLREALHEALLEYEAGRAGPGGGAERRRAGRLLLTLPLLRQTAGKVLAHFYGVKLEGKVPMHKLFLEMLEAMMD
Assay: EMSA; 2.5 mM MgCl2, poly(dI:dC); EMSA: 10 mM Tris pH 7.5, 50 mM NaCl, 2.5 mM MgCl2, 0.5 mM DTT, 4% glycerol, 2 µg poly(dI:dC), 1 pmol probe, 20 µl, room temperature 15 min; 5% polyacrylamide gel
Conditions: protein: ivt; label: 32P 5' end label (T4 PNK); strands as printed are 17 and 16 nt; S6 lacks one G relative to the exact complement of S5 (possible misprint)

B1: GS-ERRα (SCT promoter ERE-half site oligo) (dsDNA)
DNA 1: GCCCCTGACCTTCCCGG
DNA 2: CCGGGAAGGTCAGGGC
binding result: binds
